Laboratory results as given in US20230203196A1 (MABWELL THERAPEUTICS, published 2023).

T1: TMPRSS6 expressed in transfected HepG2 cells (UniProt Q8IU80 1-811, limits assumed)
T1 sequence (looked up): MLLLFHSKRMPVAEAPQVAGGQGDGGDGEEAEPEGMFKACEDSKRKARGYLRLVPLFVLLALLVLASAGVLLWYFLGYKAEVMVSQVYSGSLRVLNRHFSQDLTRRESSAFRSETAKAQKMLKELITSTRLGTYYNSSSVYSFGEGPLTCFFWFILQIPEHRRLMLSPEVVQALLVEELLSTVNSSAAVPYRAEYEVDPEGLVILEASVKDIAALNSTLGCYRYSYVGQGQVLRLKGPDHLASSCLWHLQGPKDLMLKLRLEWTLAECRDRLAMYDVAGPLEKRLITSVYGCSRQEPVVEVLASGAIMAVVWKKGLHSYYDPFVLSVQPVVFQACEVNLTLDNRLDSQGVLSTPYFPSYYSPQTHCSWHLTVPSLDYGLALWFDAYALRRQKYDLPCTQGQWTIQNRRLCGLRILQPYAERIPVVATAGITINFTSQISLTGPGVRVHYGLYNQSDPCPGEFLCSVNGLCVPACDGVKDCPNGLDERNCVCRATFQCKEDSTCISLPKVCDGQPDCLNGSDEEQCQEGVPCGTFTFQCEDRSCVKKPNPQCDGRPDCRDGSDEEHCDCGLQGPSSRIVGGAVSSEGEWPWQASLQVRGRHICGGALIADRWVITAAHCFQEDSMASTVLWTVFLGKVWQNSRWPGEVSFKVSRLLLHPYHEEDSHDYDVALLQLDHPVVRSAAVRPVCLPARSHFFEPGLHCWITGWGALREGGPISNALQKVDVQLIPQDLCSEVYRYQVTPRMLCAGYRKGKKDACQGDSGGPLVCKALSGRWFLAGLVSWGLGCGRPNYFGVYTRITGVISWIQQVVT

B1: MWTx-001 anti-TMPRSS6 antibody (antibody, mouse IgG2a, kappa, V domains shown)
VH: QVQLQQPGAELAKPGASVKMSCKASGYTFTSYWITWVKQRPGQDLEWIGNIYPGSGSTYYNEKFKSKATLTVDTSSRTAYMQLSSLTSADSAVYYCAPYDSDYAMDYWGQGTSVTVSS
VL: DIKMTQSPSSMYASLGERVTITCKASQDINNYLSWFQQKPGKSPKTLIYRANRLVDGVPSRVSGSGSGQDYSLTISSLEYEDVGIYFCLQYDEFPLTFGAGTKLELKR
B2: MWTx-003 anti-TMPRSS6 antibody (antibody, mouse IgG2b, kappa, V domains shown)
VH: EVQLQQSGAELVKPGASVKLSCTASGFNIEDYYIHWVKERTEQGLEWIGRIDPEDGETTYAPQFQGKATIIPDTSSNTAYMQLSSLTSEDAAVYYCARSIYLDPMDYWGQGTSVTVSS
VL: DIVMTQSHKFMSTSVGDRVSITCKASQDVTTAVAWYQQKPGQSPKILIYWATTRHTGVPDRFTGSISGTTYILTISSVQAEDLALYYCQQHYSTPYTFGGGTKLEIKR
B3: humanized anti-TMPRSS6 antibody variant hzMWTx-001Var (antibody, human IgG1, kappa, N297A, V domains shown)
VH: EVQLVQSGAEVKKPGASVKVSCKASGYTFTSYWITWVRQAPGQRLEWIGNIYPGSGSTYYNEKFKSKATITRDTSSRTAYMELSSLRSEDTAVYYCAPYDADYAMDYWGQGTLVTVSS
VL: DIQMTQSPSSLSASVGDRVTITCKASQDISNYLSWFQQKPGKAPKLLIYRANRLVEGVPSRFSGSGSGTDFTLTISSLQPEDFATYFCLQYDEFPLTFGGGTKVEIKR
B4: humanized anti-TMPRSS6 antibody variant hzMWTx-002Var (antibody, human IgG1, kappa, N297A, V domains shown)
VH: EVQLVQSGAEVKKPGASVKVSCKASGFNIKDYYIHWVRQATGQGLEWMGRIDPEDAESEYAPKFQGRVTITADTSTDTAYMELSSLRSEDTAVYYCTRGDSMMVTYFDYWGQGTLVTVSS
VL: DIQMTQSPSSLSASVGDRVTITCKASQDVSTAVAWYQQKPGKAPKLLIYWAFTRHTGVPSRFSGSGSGTDYALTISSLQPEDFATYYCQQHYRSPWTFGGGTKVEIKR
B5: humanized anti-TMPRSS6 antibody variant hzMWTx-003Var (antibody, human IgG1, kappa, L234A L235A, V domains shown)
VH: QVQLVQSGAEVKKPGASVKVSCKASGFNIEDYYMHWVRQAPGQRLEWMGRIDPEDAETTYSPKFQGRVTIIPDTSANTAYMELSSLRSEDTAVYYCARSIYLDPMDYWGQGTLVTVSS
VL: DIQMTQSPKSLSASVGDRVTITCRASQDVTTALAWYQQKPGQSPKLLIYWATTRHSGVPSRFSGSGSGTDFTLTISSLQPEDFATYYCQQHYSTPYTFGQGTKLEIKR

Biological target: T1, TMPRSS6 expressed in transfected HepG2 …
Experiment: cell-based or functional assay

Compared with B1, B2 is 1.5-fold lower in “HAMP promoter activity (HAMP-luciferase reporter assay in HepG2 cells expressing TMPRSS6), EC50” value (“HAMP promoter activity” for short): 3 µg/mL for the first, 2 µg/mL for the second.

Compared with B3, B4 is 2.7-fold lower in “HAMP promoter activity” value: 0.8 µg/mL for the first, 0.3 µg/mL for the second.

For B5, the “HAMP promoter activity” value was 0.3 µg/mL.
